Source: patent publication US20230374071A1, “COMPOSITIONS FOR INDUCING URINARY VOIDING AND DEFECATION” (Dignify Therapeutics, LLC, priority 2020, published 2023)
Values after ≈ are worked out from the molar mass of the structure shown. “Also recorded” adds a separate entry of the source. Blank lines part the entries; values can stand above or below the molecule they belong to. Starred links: 1 amine or outer side, 2 acyl side, 3 side chain; linkers in the order of their positions; H or OH if unused. Non-standard residues stand in square brackets, D forms with d. Residues, ends and D or L forms follow the SMILES beside them. No end group written: not given here. gc = gamma constrained Gly-(R-gamma-lactam)-Leu moiety, (S)-2-((R)-3-amino)-2-oxopyrrolidin-1-yl)-4-methylpentanoyl, between Val and the C-terminal residue, CC(C)C[C@@H](C(=O)[*:2])N1CC[C@@H](N[*:1])C1=O; Nle = CCCC[C@H](N)C(=O)O; βAla = NCCC(=O)O

Experiments:
[1] = Aqueous solubility of lyophilized peptide analogs (observed dissolution in Dulbecco's phosphate buffered saline and water); format: physicochemical; details: observed dissolution in both Dulbecco's phosphate buffered saline and water; 5 mg/mL was the maximum tested
Method: Peptide analogs of NKA were purified to ≥95% purity. […] Compounds A, B, H, and J (SEQ ID NO: 1, 2, 8, and 10) were considered to be aqueous insoluble (<0.1 mg/mL). *Aqueous solubilities of the lyophilized peptide analogs were determined based on the observed dissolution in both Dulbecco's phosphate buffered saline and water. gc=Gly-(R-gamma-lactam)-Leu or (S)-2-((R)-3-amino)-2-oxopyrrolidin-1-yl)-4-methylpantanoyl.

[2] = biological target: T1, human NK2 receptor (hNK2R) (Homo sapiens, UniProt P21452); assay: Intracellular calcium mobilization (Fluo-4 AM, FLIPR) in CHO cells expressing recombinant hNK2R; format: cell-based; details: for EC50: calcium mobilization, CHO-hNK2 cells, agonist potency, read-out: hNK2R pEC50 (converted)
T1 construct: expressed in transfected cells; host or cells: CHO (CHO-hNK2)
T1 sequence (P21452 1-398): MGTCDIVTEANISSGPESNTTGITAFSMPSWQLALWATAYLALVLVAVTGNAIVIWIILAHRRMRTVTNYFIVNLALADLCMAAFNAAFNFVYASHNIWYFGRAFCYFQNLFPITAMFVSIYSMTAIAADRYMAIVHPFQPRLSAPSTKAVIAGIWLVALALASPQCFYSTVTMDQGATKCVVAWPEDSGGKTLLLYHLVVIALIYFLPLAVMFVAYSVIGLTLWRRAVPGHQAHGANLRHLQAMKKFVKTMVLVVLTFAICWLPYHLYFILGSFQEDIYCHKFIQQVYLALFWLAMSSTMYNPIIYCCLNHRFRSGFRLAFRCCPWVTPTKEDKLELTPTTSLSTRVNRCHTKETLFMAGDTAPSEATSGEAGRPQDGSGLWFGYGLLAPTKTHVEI
Method: (§1) Intracellular Calcium Mobilization: The agonist efficacy of compounds A-J at recombinant hNK2R or hNK1Rs expressed in CHO cells was assessed by measuring intracellular calcium mobilization using the calcium-sensitive dye Fluo-4 AM (MOLECULAR PROBES, EUGENE, OR, USA) and a Fluorometric Imaging Plate Reader (FLIPR, MOLECULAR DEVICES, CA, USA). CHO-hNK1 and CHO-hNK2 cells were seeded into black walled clear-bottom 384-well plates) at a density of 10,000 and 15,000 cells per well in 50 μL culture media, respectively, and grown overnight at 37° C. in a humidified CO2-incubator. Cells were washed in washing buffer using a Microplate Washer BIOTEK 384 instrument, leaving 20 μL of buffer per well after the final aspiration. Cells were then incubated at 37° C. with the cytoplasmic Ca^2+ indicator Fluo-4 AM at 2 μM in assay buffer containing 2.5 mM probenecid and 0.02% Pluronic F-127 for 45-60 min (cell loading). Cells were then washed 3 times in washing buffer using a Microplate Washer BIOTEK 384 instrument, leaving 30 μL of buffer in each well after the last wash. Loaded cell plates were transferred to the FLIPR Tetra instrument and calcium responses monitored as described below. A dual read-out FLIPR protocol was used, allowing for characterization of both agonist and antagonist profiles. For quality control, in each compound plate the signal was monitored by evaluating the responses to the reference standards (NKA and Substance P).
(§2) Twelve concentrations of each of the compounds A-J were evaluated for their ability to increase intracellular calcium levels with respect to the agonist reference standard (NKA or Substance P), and the pEC50 value was calculated. […] Concentration response curves of compounds were run in duplicate on two different occasions from the same stock solutions. Test solutions were prepared from 10 mM stock solutions in DMSO and 1 μL of each solution was stamped into V-bottom assay plates containing 49 μL assay buffer. The final concentration of DMSO was 0.5% in each well.
(§3) The results of the intracellular calcium mobilization by in vitro activation of recombinant hNK2Rs or hNK1Rs expressed in CHO cells as described above for the 10 peptide analogs A-J, is shown in Table 3 below. In addition, FIGS. 3A-3C are exemplary graphs showing stimulation of [Ca^2+] response in CHO cells expressing human NK2 or NK1 receptors by Compound A, Compound B, and Compound G, respectively. In FIGS. 3A-3C, data are expressed as % of the maximal response to substance P for NK1 receptors, or NKA for NK2 receptors. Each data point is the mean±SD from duplicate determinations.

[3] = biological target: T2, human NK1 receptor (hNK1R) (Homo sapiens, UniProt P25103); assay: Intracellular calcium mobilization (Fluo-4 AM, FLIPR) in CHO cells expressing recombinant hNK1R; format: cell-based; details: for EC50: calcium mobilization, CHO-hNK1 cells, agonist potency, read-out: hNK1R pEC50 (converted)
T2 construct: expressed in transfected cells; host or cells: CHO (CHO-hNK1)
T2 sequence (P25103 whole entry): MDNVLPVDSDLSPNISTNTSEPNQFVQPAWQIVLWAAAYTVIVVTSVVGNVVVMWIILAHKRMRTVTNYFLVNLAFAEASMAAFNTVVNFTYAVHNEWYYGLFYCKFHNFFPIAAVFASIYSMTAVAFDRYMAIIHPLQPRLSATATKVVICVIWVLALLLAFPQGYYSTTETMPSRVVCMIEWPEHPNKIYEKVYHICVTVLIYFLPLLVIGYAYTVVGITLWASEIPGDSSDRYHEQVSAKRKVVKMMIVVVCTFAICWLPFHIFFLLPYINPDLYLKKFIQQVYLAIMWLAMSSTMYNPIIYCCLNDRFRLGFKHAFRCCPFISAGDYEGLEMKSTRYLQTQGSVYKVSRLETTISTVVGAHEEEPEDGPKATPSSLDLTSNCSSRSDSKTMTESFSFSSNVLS
Method: as §1, §2, §3

[4] = biological target: T3, human neurokinin 2 receptor (human, UniProt P21452 1-398); assay: cell-based or functional assay
T3 sequence (looked up): T1 sequence (P21452 1-398)

[5] = biological target: T4, human neurokinin 1 receptor (human, UniProt P25103 1-407); assay: cell-based or functional assay
T4 sequence (P25103 whole entry): as above

[6] = biological target: T3, human neurokinin 2 receptor; assay: cell-based or functional assay; remark: listed apart in the source
[7] = biological target: T4, human neurokinin 1 receptor; assay: cell-based or functional assay; remark: listed apart in the source
[8] = tested at concentrations up to 10 μM

solubility [1]: 5000 µg/mL (≈ 5.8 mM)
EC50 [2]: 0.195 nM
EC50 [3]: 17.4 nM
Molecule: CSCC[C@H](NC(=O)[C@H](CC(C)C)N1CC[C@@H](NC(=O)[C@@H](NC(=O)[C@H](Cc2ccccc2)NC(=O)[C@H](CCCNC(=N)N)NC(=O)[C@@H](N)CC(=O)O)C(C)C)C1=O)C(N)=O [Compound E, Asp-Arg-Phe-Val-gc-Met-NH2]

Aqueous solubility [1]: <100 µg/mL
solubility [1]: < 100 µg/mL
EC50 [2]: > 10000 nM
EC50 [3]: > 10000 nM
Molecule: CCCC[C@H](NC(=O)[C@H](CC(C)C)NC(=O)CCNC(=O)[C@@H](NC(=O)[C@H](Cc1ccccc1)NC(=O)[C@H](CO)NC(=O)[C@@H](N)CC(=O)O)C(C)C)C(N)=O [H, Asp-Ser-Phe-Val-(β-Ala)-Leu-Nle-NH2] (H-DSFV[βAla]L[Nle]-NH2; N-terminus assumed)
selectivity for activation of hNK2Rs vs hNK1Rs ([2]; from ratios of EC50s): did not exhibit selectivity for hNK2Rs; also recorded: do not exhibit selectivity for hNK2Rs
calcium response at hNK2R [2, 8]: did not elicit a significant calcium response; also recorded: do not elicit a significant calcium response
calcium response at hNK1R [3, 8]: did not elicit a significant calcium response; also recorded: do not elicit a significant calcium response

solubility [1]: 5000 µg/mL (≈ 6.13 mM)
EC50 [2]: 3.63 nM
EC50 [3]: 479 nM
Molecule: CCCC[C@H](NC(=O)[C@H](CC(C)C)N1CC[C@@H](NC(=O)[C@@H](NC(=O)[C@H](Cc2ccccc2)NC(=O)[C@H](CCCCN)NC(=O)[C@@H](N)CC(=O)O)C(C)C)C1=O)C(N)=O [Compound D, Asp-Lys-Phe-Val-gc-Nle-NH2]

maximal calcium response [6]: ≥ 85 % maximal response compared to Neurokinin A
maximal calcium response [7]: ≥ 85 % maximal response compared to Substance P
NK2R/NK1R selectivity ratio [4]: 132 fold
hNK2R pEC50 (intracellular calcium mobilization, FLIPR, CHO cells) [4]: 8.44
hNK1R pEC50 (intracellular calcium mobilization, FLIPR, CHO cells) [5]: 6.32
B2: Compound D (Asp-Lys-Phe-Val-gc-Nle-NH2) (peptide)
peptide: DKFV[gc][Nle]-NH2
modifications: N-terminus assumed
SMILES: CCCC[C@H](NC(=O)[C@H](CC(C)C)N1CC[C@@H](NC(=O)[C@@H](NC(=O)[C@H](Cc2ccccc2)NC(=O)[C@H](CCCCN)NC(=O)[C@@H](N)CC(=O)O)C(C)C)C1=O)C(N)=O

Further lines, the molecule ahead of its results:

B1: Compound H (Asp-Ser-Phe-Val-(β-Ala)-Leu-Nle-NH2) (peptide)
peptide: DSFV[βAla]L[Nle]-NH2
modifications: N-terminus assumed
SMILES: CCCC[C@H](NC(=O)[C@H](CC(C)C)NC(=O)CCNC(=O)[C@@H](NC(=O)[C@H](Cc1ccccc1)NC(=O)[C@H](CO)NC(=O)[C@@H](N)CC(=O)O)C(C)C)C(N)=O
hNK2R pEC50 (intracellular calcium mobilization, FLIPR, CHO cells) [4]: < 5
hNK1R pEC50 (intracellular calcium mobilization, FLIPR, CHO cells) [5]: < 5

B3: Compound I (Lys-Asp-Ser-Phe-Val-(β-Ala)-Leu-Met-NH2) (peptide)
peptide: KDSFV[βAla]LM-NH2
modifications: N-terminus assumed
SMILES: CSCC[C@H](NC(=O)[C@H](CC(C)C)NC(=O)CCNC(=O)[C@@H](NC(=O)[C@H](Cc1ccccc1)NC(=O)[C@H](CO)NC(=O)[C@H](CC(=O)O)NC(=O)[C@@H](N)CCCCN)C(C)C)C(N)=O
hNK2R pEC50 (intracellular calcium mobilization, FLIPR, CHO cells) [4]: < 5
hNK1R pEC50 (intracellular calcium mobilization, FLIPR, CHO cells) [5]: < 5

B4: Compound A (Asp-Ser-Phe-Val-gc-Met-NH2) (peptide)
peptide: XDSFVM
modifications: gc = Gly-(R-gamma-lactam)-Leu, (S)-2-((R)-3-amino)-2-oxopyrrolidin-1-yl)-4-methylpantanoyl moiety, between Val and Met; C-terminal amide (Met-NH2)
maximal calcium response [6]: ≥ 85 % maximal response compared to Neurokinin A
maximal calcium response [7]: ≥ 85 % maximal response compared to Substance P
NK2R/NK1R selectivity ratio [4]: 724 fold
hNK2R pEC50 (intracellular calcium mobilization, FLIPR, CHO cells) [4]: 9.17
hNK1R pEC50 (intracellular calcium mobilization, FLIPR, CHO cells) [5]: 6.31
